Changes are numbered by the printed parent chain.
What was measured:
[1] = target: T1, human CD33 (human, UniProt P20138 18-364); test: cell-based or functional assay
[2] = target: T1, human CD33; test: cell-based or functional assay; remark: listed apart in the source
[3] = target: T1, human CD33; test: flow cytometry on HEK293F cells expressing human CD33; competition with 1 nM AlexaFluor-647 m2H12 (methods paragraph 148)
Procedure: (§1) Cells were centrifuged, washed 3 times with PBS, and resuspended in 125 μL of a PBS+1% BSA solution. Fluorescence was analyzed using a flow cytometer, and the percent of saturated fluorescent signal was used to determine percent labeled 2H12 mAb bound. The EC50 was extrapolated by fitting the data to a sigmoidal dose-response curve with variable slope.
(§2) Humanized heavy and light chains were paired with chimeric light and heavy chains (chimeric chains composed of murine variable regions and human constant regions) respectively. The humanized/chimeric hybrid variants of CD33 mAb were tested for binding to human CD33 expressed on the surface of HEL 92.1.7 AML cells (Table 5). Heavy chains HC and HI were selected for further study. Humanized antibodies were expressed representing permutations of humanized heavy chains HC and HI and humanized light chains LA, LE and LG and binding to cells expressing human or cynomolgus (cyno) CD33 was determined (Table 6). The HILG antibody (2H12 HILG) was selected as the humanized antibody that most closely resembled the binding characteristics of the murine CD33 mAb m2H12. The HILG antibody is referred to as the h2H12 antibody ([…] 2H12 antibody). The KD for m2H12, h2H12, and h2H12 with an S239C mutation (EU numbering) in the IgG1 heavy chain (referred to as h2H12EC, for engineered cysteine), was determined for human CD33 expressed as an endogenous protein in two AML cell lines or as a recombinant protein in a HEK293F cell line. The KD for these antibodies was also determined for cyno CD33 expressed as a recombinant protein in a HEK293F cell line (Table 7).

[4] = target: T1, human CD33; test: flow cytometry on HEL 92.1.7 AML cells; competition with 1 nM AlexaFluor-647 m2H12 (methods paragraph 148)
Procedure: as §1, §2

[5] = target: T1, human CD33; test: flow cytometry on HEL 92.1.7 cells; competition with 1 nM AlexaFluor-647 m2H12 (methods paragraph 148)
Procedure: as §1, §2

[6] = target: T2, cynomolgus CD33 (cynomolgus); test: flow cytometry on HEK293F cells expressing cyno CD33; competition with 1 nM AlexaFluor-647 m2H12 (methods paragraph 148)
T2 construct: Recombinant on transfected HEK293F cells; also called cyno CD33; cynoCD33
Procedure: as §1, §2

[7] = target: T1, human CD33; test: flow cytometry on HEL 92.1.7 AML cells

T1 sequence (P20138 18-364): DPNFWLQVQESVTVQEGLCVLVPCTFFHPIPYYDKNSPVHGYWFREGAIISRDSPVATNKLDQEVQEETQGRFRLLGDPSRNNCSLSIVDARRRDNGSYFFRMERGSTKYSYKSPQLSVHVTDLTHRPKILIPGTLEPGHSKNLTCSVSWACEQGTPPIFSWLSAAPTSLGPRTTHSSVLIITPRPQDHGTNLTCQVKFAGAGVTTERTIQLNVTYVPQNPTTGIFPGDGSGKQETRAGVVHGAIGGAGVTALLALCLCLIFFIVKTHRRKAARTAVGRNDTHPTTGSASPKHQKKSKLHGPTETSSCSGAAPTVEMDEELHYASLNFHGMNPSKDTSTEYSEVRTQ
T2 sequence (chain, as listed by the source limits assumed): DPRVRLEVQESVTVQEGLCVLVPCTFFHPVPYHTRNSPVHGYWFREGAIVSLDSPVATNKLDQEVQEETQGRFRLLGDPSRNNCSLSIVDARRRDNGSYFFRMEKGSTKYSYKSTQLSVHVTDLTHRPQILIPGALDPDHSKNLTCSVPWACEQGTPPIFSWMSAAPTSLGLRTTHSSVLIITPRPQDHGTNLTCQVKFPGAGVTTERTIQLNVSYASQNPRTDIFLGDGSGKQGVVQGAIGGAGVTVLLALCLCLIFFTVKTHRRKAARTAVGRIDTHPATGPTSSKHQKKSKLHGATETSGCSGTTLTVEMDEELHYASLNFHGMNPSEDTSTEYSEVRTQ

B1: h2H12EC-SGD-1910 (other)
VH: QVQLVQSGAEVKKPGASVKVSCKASGYTFTNYDINWVRQAPGQGLEWIGWIYPGDGSTKYNEKFKAKATLTADTSTSTAYMELRSLRSDDTAVYYCASGYEDAMDYWGQGTTVTVSS
VL: DIQMTQSPSSLSASVGDRVTINCKASQDINSYLSWFQQKPGKAPKTLIYRANRLVDGVPSRFSGSGSGQDYTLTISSLQPEDFATYYCLQYDEFPLTFGGGTKVEIK
modifications: drug-linker SGD-1910 (pyrrolobenzodiazepine dimer) on the cysteine introduced at position 239 of the IgG1 chain, average about 2 drugs per antibody
[1]
  IC50 (ng/mL), cytotoxicity on HEL 92.1.7 cells: 7 ng/mL
  IC50 (ng/mL), cytotoxicity on HL-60 cells: 1 ng/mL
  IC50 (ng/mL), cytotoxicity on KG-1 cells: 3 ng/mL
  IC50 (ng/mL), cytotoxicity on MV4-11 cells: 0.1 ng/mL
  IC50 (ng/mL), cytotoxicity on TF1-α cells: 49 ng/mL
  IC50 (ng/mL), cytotoxicity on TF-1 cells: 61 ng/mL
  IC50 (ng/mL), cytotoxicity on U937 cells: 22 ng/mL
[2]
  IC50, cytotoxicity on HEL 92.1.7 cells (96 h, CelltiterGlo): ~12.9 ng/mL
  IC50, cytotoxicity on HL-60 cells (96 h, CelltiterGlo): ~1.6 ng/mL
  mean IC50 over 7 of 7 AML cell lines, cytotoxicity: 20.4 ng/mL

B2: h2H12-SGD-1269 (other)
VH: B1 VH
VL: B1 VL
modifications: drug-linker SGD-1269 (mcMMAF) on thiol groups of interchain disulfide cysteines, average about 4 drugs per antibody
[1]
  IC50 (ng/mL), cytotoxicity on HEL 92.1.7 cells: > 1000 ng/mL
  IC50 (ng/mL), cytotoxicity on HL-60 cells: 2 ng/mL
  IC50 (ng/mL), cytotoxicity on KG-1 cells: 270 ng/mL
  IC50 (ng/mL), cytotoxicity on MV4-11 cells: 0.1 ng/mL
  IC50 (ng/mL), cytotoxicity on TF1-α cells: > 1000 ng/mL
  IC50 (ng/mL), cytotoxicity on TF-1 cells: > 1000 ng/mL
  IC50 (ng/mL), cytotoxicity on U937 cells: 19 ng/mL
[2]
  IC50, cytotoxicity on HL-60 cells (96 h, CelltiterGlo): 5.3 ng/mL
  mean IC50 for responsive AML cell lines (4 of 7), cytotoxicity: 72.8 ng/mL

B3: m2H12-SGD-1269 (other)
VH: QVQLQQSGPELVRPGTFVKISCKASGYTFTNYDINWVNQRPGQGLEWIGWIYPGDGSTKYNEKFKAKATLTADKSSSTAYLQLNNLTSENSAVYFCASGYEDAMDYWGQGTSVTVSS
VL: DIKMTQSPSSMYASLGERVIINCKASQDINSYLSWFQQKPGKSPKTLIYRANRLVDGVPSRFSGSGSGQDYSLTISSLEYEDMGIYYCLQYDEFPLTFGAGTKLELK
modifications: conjugated to drug-linker SGD-1269 (mcMMAF); sites and load not stated for the murine antibody
[2]
  IC50, cytotoxicity on HL-60 cells (96 h, CelltiterGlo): 1.3 ng/mL

B4: murine mAb 2H12 (antibody, V domains shown)
VH: B3 VH
VL: B3 VL
notes: Murine monoclonal antibody from Balb/c mice; also called m2H12; murine 2H12 antibody
[3]
  EC50: 11.6 nM
[4]
  EC50: 2.38 nM
[5]
  EC50: 5.4 nM
[6]
  EC50: 30.6 nM

B5: HAcL (antibody, V domains shown)
VH: B1 VH with I48M, K67R, A68V, L70M, A72T, S98R
VL: B3 VL
notes: Hybrid of humanized heavy chain HA and the chimeric light chain (murine VL, human constant region)
[7]
  binding result: no binding (tested: 0.03 nM to 600 nM (methods))

B6: HBcL (antibody, V domains shown)
VH: B1 VH with I48M, K67R, A68V, L70M, S98R
VL: B3 VL
notes: Hybrid of humanized heavy chain HB and the chimeric light chain (murine VL, human constant region)
[7]
  binding result: no binding (tested: 0.03 nM to 600 nM (methods))

B7: HDcL (antibody, V domains shown)
VH: B1 VH with I48M, K67R, A68V, L70M, A72T, T74K, S98R
VL: B3 VL
notes: Hybrid of humanized heavy chain HD and the chimeric light chain (murine VL, human constant region)
[7]
  binding result: no binding (tested: 0.03 nM to 600 nM (methods))

B8: HEcL (antibody, V domains shown)
VH: B1 VH with K67R, A68V, L70M, A72T, S98R
VL: B3 VL
notes: Hybrid of humanized heavy chain HE and the chimeric light chain (murine VL, human constant region)
[7]
  binding result: no binding (tested: 0.03 nM to 600 nM (methods))

B9: HFcL (antibody, V domains shown)
VH: B1 VH with R38N, A40R, I48M, K67R, A68V, L70M, A72T, S98R
VL: B3 VL
notes: Hybrid of humanized heavy chain HF and the chimeric light chain (murine VL, human constant region)
[7]
  binding result: no binding (tested: 0.03 nM to 600 nM (methods))

B10: HGcL (antibody, V domains shown)
VH: B1 VH with I48M, A72T, S98R
VL: B3 VL
notes: Hybrid of humanized heavy chain HG and the chimeric light chain (murine VL, human constant region)
[7]
  binding result: no binding (tested: 0.03 nM to 600 nM (methods))

B11: HHcL (antibody, V domains shown)
VH: B1 VH with I48M, K67R, A68V, L70M, A72T, R84S, R87T, S98R
VL: B3 VL
notes: Hybrid of humanized heavy chain HH and the chimeric light chain (murine VL, human constant region)
[7]
  binding result: no binding (tested: 0.03 nM to 600 nM (methods))

B12: h2H12 antibody (2H12 HILG) (antibody, V domains shown)
VH: B1 VH
VL: B1 VL
notes: also called humanized 2H12; human 2H12 antibody
[3]
  EC50: 14.4 nM
[4]
  EC50: 3.39 nM
[5]
  EC50: 7.8 nM
[6]
  EC50: 39.9 nM
